Assays:
mouse plasma proteins = assay: rapid equilibrium dialysis (RED), mouse plasma, 500 ng/mL
[1] = molecular target: N-terminal polyhistidine tagged recombinant rat neurolysin (rat) (UniProt P42676); assay: cell-based or functional assay

| fu in Plasma (fraction unbound) (mouse plasma proteins) | formation of angiotensin-(1-7) from angiotensin I (20 µM), mass spectrometry, 100 µM modulator [1] [fold] | formation of bradykinin-(1-5) from bradykinin (20 µM), mass spectrometry, 100 µM modulator [1] [fold] | formation of neurotensin-(1-10) from neurotensin (20 µM), mass spectrometry, 100 µM modulator [1] [fold] | Substance |
| --- | --- | --- | --- | --- |
| 0.93 |  |  |  | His-Trp (peptide) |
| 0.66 | 6 | 2 | 3 | NlnA#1, NSC 374121, L-histidyl-L-tyrosine (peptide) |
|  | 6 | 2 | 3 | NlnA#2, NSC 523374, D,L-histidyl-D,L-histidine (peptide) |

Reference: patent US20210198647A1, “Enhancers of Neurolysin Activity” (Texas Tech University System, priority 2018, published 2021)
